Reference: patent publication US20070224194A1, “Methods for Inhibiting Angiogenesis and/or Lymphangiogenesis” (LUDWIG INSTITUTE FOR CANCER RESEARCH, priority 2004, published 2007)
Like-named read-outs stand apart in the source and are kept apart here.

B1: mature form of VEGF-D generated by furin: ~21 kDa VEGF-D species from LoVo cells co-transfected with VEGF-D-FULL-N-FLAG and furin expression constructs (protein)
chain: FAATFYDIETLKVIDEEWQRTQCSPRETCVEVASELGKSTNTFFKPPCVNVFRCGGCCNEESLICMNTSTSYISKQLFEISVPLTSVPELVPVKVANHTGCKCLPTAPRHPYSIIRR
B2: mature VEGF-D: mature form of VEGF-D consisting of dimers of the VHD, lacking both propeptides (protein)
chain: FAATFYDIETLKVIDEEWQRTQCSPRETCVEVASELGKSTNTFFKPPCVNVFRCGGCCNEESLICMNTSTSYISKQLFEISVPLTSVPELVPVKVANHTGCKCLPTAPRHPYSIIRR

Tests used:
[1] = target: T1, extracellular domain of human VEGFR-2 (VEGFR-2-Ig) (Homo sapiens, UniProt P35968); assay: Precipitation with soluble receptor VEGFR-2-Ig from LoVo conditioned media; assay type: binding; conditions: conditioned media of LoVo cells co-transfected with VEGF-D-FULL-N-FLAG and furin
T1 construct: soluble fusion proteins consisting of the extracellular domains of human VEGFR-1, VEGFR-2 or VEGFR-3; made in house; host or cells: 293EBNA cells (conditioned media, captured on protein-A sepharose)
Method: (§1) Binding to receptor extracellular domains was examined using soluble fusion proteins consisting of the extracellular domains of human VEGFR-1, VEGFR-2 or VEGFR-3 joined to the Fe portions of human IgG (referred to as VEGFR-1-Ig (R&D Systems), VEGFR-2-Ig and VEGFR-3-Ig) (Achen et al, Proc. Natl. Acad. Sci. USA 95 548-553, 1998). Protein-A sepharose beads were incubated overnight with the conditioned media of 293EBNA cells expressing VEGFR-1-Ig, VEGFR-2-Ig or VEGFR-3-Ig to precipitate the soluble receptor constructs. The soluble receptors bound to protein-A sepharose beads were recovered by centrifugation (5 minutes, 250×g, 4° C.) and washed twice with binding buffer (0.5% (w/v) BSA, 0.02% (v/v) Tween 20, 10 μg/ml heparin in phosphate buffered saline). The soluble receptors bound to protein-A sepharose beads were then incubated with the conditioned media of LoVo cells, that had been co-transfected with pVDAPEX FULL-N-FLAG and pcDNA3:furin, for three hours at room temperature, and washed twice with binding buffer. Proteins bound to the VEGFR-2-Ig and VEGFR-3-Ig constructs were analysed by reducing SDS-PAGE and Western blotting with a biotinylated antibody against the VHD of human VEGF-D (R&D Systems), followed by Streptavidin-horse radish peroxidase conjugate (Zymed).

[2] = target: T2, extracellular domain of human VEGFR-3 (VEGFR-3-Ig) (Homo sapiens, UniProt P35916); assay: Precipitation with soluble receptor VEGFR-3-Ig from LoVo conditioned media; assay type: binding; conditions: conditioned media of LoVo cells co-transfected with VEGF-D-FULL-N-FLAG and furin
T2 construct: soluble fusion proteins consisting of the extracellular domains of human VEGFR-1, VEGFR-2 or VEGFR-3; made in house; host or cells: 293EBNA cells (conditioned media, captured on protein-A sepharose)
T2 sequence (P35916 25-775 limits assumed): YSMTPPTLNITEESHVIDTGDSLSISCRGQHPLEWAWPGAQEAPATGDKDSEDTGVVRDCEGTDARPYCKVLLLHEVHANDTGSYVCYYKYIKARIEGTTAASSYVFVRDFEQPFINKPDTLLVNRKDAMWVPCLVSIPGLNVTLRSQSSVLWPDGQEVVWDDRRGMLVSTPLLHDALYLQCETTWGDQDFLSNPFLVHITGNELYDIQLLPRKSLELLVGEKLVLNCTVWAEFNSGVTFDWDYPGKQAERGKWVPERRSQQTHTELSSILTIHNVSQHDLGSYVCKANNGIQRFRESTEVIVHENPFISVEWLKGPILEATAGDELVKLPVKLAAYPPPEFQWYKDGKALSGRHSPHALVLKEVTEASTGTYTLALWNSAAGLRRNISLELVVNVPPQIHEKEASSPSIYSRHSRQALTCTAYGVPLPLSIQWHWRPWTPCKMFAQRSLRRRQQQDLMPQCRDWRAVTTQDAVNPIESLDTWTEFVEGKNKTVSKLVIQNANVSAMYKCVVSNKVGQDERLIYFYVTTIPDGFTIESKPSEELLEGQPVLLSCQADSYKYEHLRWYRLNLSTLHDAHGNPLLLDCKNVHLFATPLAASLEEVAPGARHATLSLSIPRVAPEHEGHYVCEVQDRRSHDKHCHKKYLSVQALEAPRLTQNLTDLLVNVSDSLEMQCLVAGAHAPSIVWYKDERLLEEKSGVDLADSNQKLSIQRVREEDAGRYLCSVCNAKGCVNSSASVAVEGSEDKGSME
Method: as §1

VEGFR-2 [3] = target: T3, VEGFR-2 (Homo sapiens, UniProt P35968); assay: Biosensor analysis (surface plasmon resonance) of VEGF-D ligands on VEGFR-2; assay type: binding; conditions: 1:1 Langmurian model
Method: (§2) To determine the relative affinities of the ligands VEGF-DSSTS.IISS, VEGF-D-FULL-N-FLAG and mature VEGF-D (designated VEGF-DΔNΔC) for VEGFR-2 and VEGFR-3, the relative binding kinetics for these interactions was analyzed by biosensor analysis using surface plasmon resonance detection (Nice et al., Bioessays, 21:339-352, 1999). The preparations of VEGF-DSSTS.IISS and VEGF-DΔNΔC used for this analysis each consisted of one VEGF-D species devoid of other forms of VEGF-D but the preparation of VEGF-D-FULL-N-FLAG did contain traces of partially processed as well as full-length material, reflecting the capacity of wild-type full-length VEGF-D to be proteolytically processed in the 293EBNA cell cultures) from which these proteins were purified (see FIG. 10B). The binding constants for the interactions were obtained by analysis of the initial dissociation phase to obtain the kd, which was then used to constrain a global analysis of the association region of the curves, using regions of the curves where a 1:1 Langmurian model appeared to be operative.

VEGFR-3 [4] = target: T4, VEGFR-3 (Homo sapiens, UniProt P35916); assay: Biosensor analysis (surface plasmon resonance) of VEGF-D ligands on VEGFR-3; assay type: binding
Method: as §2

VEGFR-2 [5] = target: T3, VEGFR-2; conditions: full-length form that could be processed, cited from earlier work
VEGFR-3 [6] = target: T4, VEGFR-3; conditions: cited from earlier work

T3 sequence (P35968 20-1356): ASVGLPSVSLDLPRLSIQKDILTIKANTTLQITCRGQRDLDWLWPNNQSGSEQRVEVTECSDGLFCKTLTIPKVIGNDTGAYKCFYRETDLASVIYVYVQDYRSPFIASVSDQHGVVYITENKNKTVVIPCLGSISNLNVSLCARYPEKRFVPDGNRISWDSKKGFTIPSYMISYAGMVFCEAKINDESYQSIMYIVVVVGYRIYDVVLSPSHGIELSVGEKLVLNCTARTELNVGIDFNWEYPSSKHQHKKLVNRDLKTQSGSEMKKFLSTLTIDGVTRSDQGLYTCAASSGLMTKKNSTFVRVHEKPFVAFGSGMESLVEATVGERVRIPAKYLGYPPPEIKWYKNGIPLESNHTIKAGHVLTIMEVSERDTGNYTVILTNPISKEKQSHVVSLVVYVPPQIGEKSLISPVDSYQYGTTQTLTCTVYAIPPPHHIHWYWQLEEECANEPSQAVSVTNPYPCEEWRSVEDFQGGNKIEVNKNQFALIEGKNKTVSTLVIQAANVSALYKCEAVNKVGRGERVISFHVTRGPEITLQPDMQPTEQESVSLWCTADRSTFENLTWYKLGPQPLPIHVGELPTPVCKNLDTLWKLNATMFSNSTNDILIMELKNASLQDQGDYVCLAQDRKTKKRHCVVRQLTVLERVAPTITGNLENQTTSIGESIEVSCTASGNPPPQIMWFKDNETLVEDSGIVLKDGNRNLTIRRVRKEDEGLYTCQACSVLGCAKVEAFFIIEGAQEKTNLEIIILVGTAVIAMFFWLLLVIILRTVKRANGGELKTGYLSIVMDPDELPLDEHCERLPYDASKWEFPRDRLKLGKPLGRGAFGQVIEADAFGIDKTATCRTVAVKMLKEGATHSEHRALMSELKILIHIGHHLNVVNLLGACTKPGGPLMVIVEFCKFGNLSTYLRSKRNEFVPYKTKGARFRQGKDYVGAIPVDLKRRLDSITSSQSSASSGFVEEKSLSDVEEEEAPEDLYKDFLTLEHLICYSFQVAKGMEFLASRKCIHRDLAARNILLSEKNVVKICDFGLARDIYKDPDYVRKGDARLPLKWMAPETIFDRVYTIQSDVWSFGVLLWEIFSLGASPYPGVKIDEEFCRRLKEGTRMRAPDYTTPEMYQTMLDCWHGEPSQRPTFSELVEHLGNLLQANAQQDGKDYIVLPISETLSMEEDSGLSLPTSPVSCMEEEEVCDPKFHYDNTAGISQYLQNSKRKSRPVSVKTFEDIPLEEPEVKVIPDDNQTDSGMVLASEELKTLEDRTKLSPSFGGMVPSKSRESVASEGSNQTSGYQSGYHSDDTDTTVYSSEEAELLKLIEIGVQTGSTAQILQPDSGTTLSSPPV
T4 sequence (P35916 25-1363): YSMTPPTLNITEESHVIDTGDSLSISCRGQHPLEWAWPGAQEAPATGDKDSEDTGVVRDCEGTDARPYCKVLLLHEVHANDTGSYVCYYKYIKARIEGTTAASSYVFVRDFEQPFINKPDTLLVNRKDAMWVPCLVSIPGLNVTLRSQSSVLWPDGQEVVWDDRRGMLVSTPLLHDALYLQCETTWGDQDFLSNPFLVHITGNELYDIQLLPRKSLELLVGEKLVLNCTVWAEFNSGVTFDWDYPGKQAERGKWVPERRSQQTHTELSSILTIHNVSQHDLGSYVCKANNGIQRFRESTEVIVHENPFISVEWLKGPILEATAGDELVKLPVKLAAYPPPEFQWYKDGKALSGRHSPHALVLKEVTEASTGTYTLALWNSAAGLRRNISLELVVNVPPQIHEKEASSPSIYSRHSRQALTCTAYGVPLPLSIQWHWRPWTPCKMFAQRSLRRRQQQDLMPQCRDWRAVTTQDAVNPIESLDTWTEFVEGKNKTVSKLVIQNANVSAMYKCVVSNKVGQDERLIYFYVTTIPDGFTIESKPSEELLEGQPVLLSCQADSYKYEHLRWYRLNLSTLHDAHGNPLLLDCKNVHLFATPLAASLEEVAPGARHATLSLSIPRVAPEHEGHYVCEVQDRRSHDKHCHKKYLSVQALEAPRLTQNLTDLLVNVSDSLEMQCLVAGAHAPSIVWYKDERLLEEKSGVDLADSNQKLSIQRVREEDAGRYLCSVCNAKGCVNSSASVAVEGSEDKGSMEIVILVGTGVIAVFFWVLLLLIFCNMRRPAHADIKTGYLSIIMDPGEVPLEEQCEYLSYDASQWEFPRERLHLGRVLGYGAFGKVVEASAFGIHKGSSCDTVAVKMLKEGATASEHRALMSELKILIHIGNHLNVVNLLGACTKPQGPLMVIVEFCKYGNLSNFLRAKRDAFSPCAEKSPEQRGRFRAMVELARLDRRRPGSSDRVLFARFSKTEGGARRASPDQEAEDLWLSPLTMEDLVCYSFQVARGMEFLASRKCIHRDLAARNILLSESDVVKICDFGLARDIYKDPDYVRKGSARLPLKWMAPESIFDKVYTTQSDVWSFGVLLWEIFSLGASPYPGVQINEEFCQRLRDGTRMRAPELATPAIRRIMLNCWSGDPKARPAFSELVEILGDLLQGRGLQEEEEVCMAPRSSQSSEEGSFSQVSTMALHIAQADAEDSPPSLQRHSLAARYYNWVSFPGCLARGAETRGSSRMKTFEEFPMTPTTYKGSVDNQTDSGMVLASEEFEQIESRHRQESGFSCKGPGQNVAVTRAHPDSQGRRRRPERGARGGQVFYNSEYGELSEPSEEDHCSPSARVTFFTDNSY
T1 sequence (P35968 20-764 limits assumed): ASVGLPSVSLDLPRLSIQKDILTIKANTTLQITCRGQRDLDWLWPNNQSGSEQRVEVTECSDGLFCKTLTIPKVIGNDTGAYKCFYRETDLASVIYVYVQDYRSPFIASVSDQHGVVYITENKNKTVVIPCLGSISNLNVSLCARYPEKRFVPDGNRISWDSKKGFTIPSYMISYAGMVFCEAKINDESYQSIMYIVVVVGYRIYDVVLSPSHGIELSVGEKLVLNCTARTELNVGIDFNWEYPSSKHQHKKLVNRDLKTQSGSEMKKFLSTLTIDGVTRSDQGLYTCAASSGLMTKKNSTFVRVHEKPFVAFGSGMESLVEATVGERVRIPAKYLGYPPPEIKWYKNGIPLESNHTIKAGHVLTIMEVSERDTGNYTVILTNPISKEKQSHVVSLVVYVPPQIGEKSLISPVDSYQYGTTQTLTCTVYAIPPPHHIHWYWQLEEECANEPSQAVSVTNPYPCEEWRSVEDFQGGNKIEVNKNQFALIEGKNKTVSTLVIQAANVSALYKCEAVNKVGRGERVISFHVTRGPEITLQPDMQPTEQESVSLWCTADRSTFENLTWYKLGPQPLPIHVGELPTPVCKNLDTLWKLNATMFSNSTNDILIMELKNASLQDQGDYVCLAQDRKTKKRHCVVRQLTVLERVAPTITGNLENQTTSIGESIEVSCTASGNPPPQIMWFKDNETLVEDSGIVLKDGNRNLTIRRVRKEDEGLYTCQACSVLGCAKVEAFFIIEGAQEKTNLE

Molecule	binding to the extracellular domain of VEGFR-2 [1]	binding to the extracellular domain of VEGFR-3 [2]	apparent affinity for VEGFR-2 relative to unprocessed mutant VEGF-DSSTS.IISS (VEGFR-2 [3])	affinity for VEGFR-3 relative to VEGF-DSSTS.IISS (VEGFR-3 [4])	affinity for VEGFR-2 relative to full-length (unprocessed) VEGF-D, previously reported (VEGFR-2 [5])	affinity for VEGFR-2 relative to full-length (unprocessed) VEGF-D, previously reported (VEGFR-2 [5]; listed as mature form of VEGF-D)	affinity for VEGFR-3 relative to unprocessed VEGF-D, previously reported (VEGFR-3 [6])
B1	binds	binds	–	–	–	–	–
B2	–	–	~17,000 fold	~18 fold	~290 fold	approximately 290 fold	~40 fold
